Experimental data taken from US20230272055A1 (Incyte, published 2023).
Changes are numbered by the printed parent chain. Numbers in names are those of the source.

B1: anti-mutCALR antibody clone 75 (antibody, human IgG1, lambda, N297A, V domains shown)
VH: EVQLVQSGAEVKKPGASVKVSCKVSGYTLTELSMQWVRQAPGKGLEWMGGFDPDDGETMYAEKFQGRLTVTEDTSTDTVYMELRSLTSEDTALYFCATSPGYDFFDYWGQGTLVTVSS
VL: SYVLTQPPSVSVAPGKTARITCGGNNIGSKSVHWYQQKPGQAPVLVVYDDSDRPSGIPERFSGSNSGNTATLTISRVEAGDEADYYCQVWDSSNDLLIFGGGTKLTVLG
B2: anti-mutCALR antibody clone 179 (antibody, human IgG1, lambda, N297A, V domains shown)
VH: B1 VH with G56A, R84S, T87R, L93V
VL: B1 VL with K16Q, N25S, N26D, S29D, K30E, S31I, V77A, E78Q, N94S, L96H
notes: human IgG1 N297A variant of clone 17
B3: anti-mutCALR antibody clone 175 (antibody, human IgG1, lambda, N297A, V domains shown)
VH: B1 VH with R84S, T87R, L93V
VL: B1 VL with K16Q, N25S, N26D, S29D, K30E, S31I, V77A, E78Q, N94S, L96H
notes: as for B2
B4: anti-mutCALR antibody clone 178 (antibody, human IgG1, lambda, N297A, V domains shown)
VH: B1 VH with D55E, R84S, T87R, L93V
VL: B1 VL with K16Q, N25S, N26D, S29D, K30E, S31I, V77A, E78Q, N94S, L96H
notes: as for B2
B5: anti-mutCALR antibody clone 176 (antibody, human IgG1, lambda, N297A, V domains shown)
VH: B1 VH with D55A, R84S, T87R, L93V
VL: B1 VL with K16Q, N25S, N26D, S29D, K30E, S31I, V77A, E78Q, N94S, L96H
B6: anti-mutCALR antibody clone 177 (antibody, human IgG1, lambda, N297A, V domains shown)
VH: B1 VH with D55S, R84S, T87R, L93V
VL: B1 VL with K16Q, N25S, N26D, S29D, K30E, S31I, V77A, E78Q, N94S, L96H
notes: as for B2
B7: anti-mutCALR antibody clone 70 (antibody, human IgG1, lambda, N297A, V domains shown)
VH: B1 VH with R84S, T87R, L93V
VL: SYVLTQPPSVSVAPGKTARITCTGTSSDVGGYNYVSWYQQKPGQAPVLVVYEVSNRPSGIPERFSGSNSGNTATLTISRVEAGDEADYYCQVWDSSNDLLIFGGGTKLTVLG
notes: human IgG1 N297A variant of clone 6
B8: anti-mutCALR antibody clone 124 (antibody, human IgG1, lambda, N297A)
heavy: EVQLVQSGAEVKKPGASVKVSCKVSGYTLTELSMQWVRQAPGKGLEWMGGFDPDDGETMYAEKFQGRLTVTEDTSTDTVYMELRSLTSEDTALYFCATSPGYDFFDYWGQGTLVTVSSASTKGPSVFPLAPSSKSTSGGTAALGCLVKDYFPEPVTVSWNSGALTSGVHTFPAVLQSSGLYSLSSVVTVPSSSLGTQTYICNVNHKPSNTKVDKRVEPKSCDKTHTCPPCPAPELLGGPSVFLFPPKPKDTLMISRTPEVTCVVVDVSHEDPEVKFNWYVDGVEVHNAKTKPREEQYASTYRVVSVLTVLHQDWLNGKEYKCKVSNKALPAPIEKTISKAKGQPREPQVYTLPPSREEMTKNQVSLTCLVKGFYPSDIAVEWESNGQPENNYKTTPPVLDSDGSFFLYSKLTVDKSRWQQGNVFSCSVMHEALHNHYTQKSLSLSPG
light: SYELTQPPSVSVAPGKTARITCGGDNIGSKSVHWYQQKPGQAPVLVVYDDSDRPSGIPERFSGSNSGNTATLTINRVEAGDEADYYCQVWDSSNDLLIFGGGTKLTVLGQPKAAPSVTLFPPSSEELQANKATLVCLISDFYPGAVTVAWKADSSPVKAGVETTTPSKQSNNKYAASSYLSLTPEQWKSHRSYSCQVTHEGSTVEKTVAPTECS
B9: anti-mutCALR antibody clone 77 (antibody, human IgG1, lambda, N297A, V domains shown)
VH: B1 VH with D55S
VL: B1 VL
B10: anti-mutCALR antibody clone 78 (antibody, human IgG1, lambda, N297A, V domains shown)
VH: B1 VH with D55E
VL: B1 VL
B11: anti-mutCALR antibody clone 72 (antibody, human IgG1, lambda, N297A, V domains shown)
VH: B1 VH with D55S, R84S, T87R, L93V
VL: B7 VL
notes: as for B7
B12: anti-mutCALR antibody clone 82 (antibody, human IgG1, lambda, N297A, V domains shown)
VH: B1 VH with D55S, R84S, T87R, L93V
VL: B1 VL
B13: anti-mutCALR antibody clone 71 (antibody, human IgG1, lambda, N297A, V domains shown)
VH: B1 VH with D55A, R84S, T87R, L93V
VL: B7 VL
notes: as for B7
B14: anti-mutCALR antibody clone 63 (antibody, human IgG1, lambda, N297A, V domains shown)
VH: B1 VH with D55E, R84S, T87R, L93V
VL: QSALTQPASVSGSPGQSITISCTGTSSDVGGYNYVSWYQQHPGKAPKLMIYEVSNRPSGVSNRFSGSNSGNTATLTINRVEAGDEADYYCQVWDSSNDLLIFGGGTKLTVLG
notes: as for B7
B15: anti-mutCALR antibody clone 68 (antibody, human IgG1, lambda, N297A, V domains shown)
VH: B1 VH with D55E
VL: B7 VL
notes: as for B7
B16: anti-mutCALR antibody clone 67 (antibody, human IgG1, lambda, N297A, V domains shown)
VH: B1 VH with D55S
VL: B7 VL
notes: as for B7
B17: anti-mutCALR antibody clone 83 (antibody, human IgG1, lambda, N297A, V domains shown)
VH: B1 VH with D55E, R84S, T87R, L93V
VL: B1 VL
B18: anti-mutCALR antibody clone 69 (antibody, human IgG1, lambda, N297A, V domains shown)
VH: B1 VH with G56A
VL: B7 VL
notes: as for B7
B19: anti-mutCALR antibody clone 64 (antibody, human IgG1, lambda, N297A, V domains shown)
VH: B1 VH with G56A, R84S, T87R, L93V
VL: B14 VL
notes: as for B7
B20: anti-mutCALR antibody clone 76 (antibody, human IgG1, lambda, N297A, V domains shown)
VH: B1 VH with D55A
VL: B1 VL
B21: anti-mutCALR antibody clone 125 (antibody, human IgG1, lambda, N297A, V domains shown)
VH: B1 VH with D55A
VL: B1 VL with V3E, N25D, S75N
B22: anti-mutCALR antibody clone 73 (antibody, human IgG1, lambda, N297A, V domains shown)
VH: B1 VH with D55E, R84S, T87R, L93V
VL: B7 VL
notes: as for B7
B23: anti-mutCALR antibody clone 81 (antibody, human IgG1, lambda, N297A, V domains shown)
VH: B1 VH with D55A, R84S, T87R, L93V
VL: B1 VL
B24: anti-mutCALR antibody clone 79 (antibody, human IgG1, lambda, N297A, V domains shown)
VH: B1 VH with G56A
VL: B1 VL
B25: anti-mutCALR antibody clone 66 (antibody, human IgG1, lambda, N297A, V domains shown)
VH: B1 VH with D55A
VL: B7 VL
notes: as for B7
B26: anti-mutCALR antibody clone 84 (antibody, human IgG1, lambda, N297A, V domains shown)
VH: B1 VH with G56A, R84S, T87R, L93V
VL: B1 VL

How the values were obtained:
[1] = target: T1, human mutCALR on BaF3 cells stably expressing human MPL and human mutCALR (MPL-mutCALR cells) (human); test: flow cytometry, BaF3 MPL-mutCALR cells
T1 construct: also called mutant calreticulin
T1 chain: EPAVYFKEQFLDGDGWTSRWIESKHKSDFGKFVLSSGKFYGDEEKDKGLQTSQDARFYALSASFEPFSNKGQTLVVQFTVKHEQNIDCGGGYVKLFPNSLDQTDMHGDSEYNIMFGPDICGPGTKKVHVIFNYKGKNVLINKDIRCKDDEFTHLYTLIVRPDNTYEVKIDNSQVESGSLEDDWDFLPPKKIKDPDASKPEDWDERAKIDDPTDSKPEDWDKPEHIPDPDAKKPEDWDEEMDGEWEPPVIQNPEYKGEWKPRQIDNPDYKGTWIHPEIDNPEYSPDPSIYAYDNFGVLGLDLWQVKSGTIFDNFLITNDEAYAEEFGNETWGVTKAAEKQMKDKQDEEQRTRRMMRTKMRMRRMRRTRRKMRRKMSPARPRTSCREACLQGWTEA
Method: On the day of the assay, cells were washed and resuspended in assay buffer. Approximately 200,000 cells/well were added to 96-well plates and stained with the indicated concentration of antibodies for 30 minutes on ice. Cells were then washed and stained with goat anti-human secondary conjugated to R-phycoerythrin (R-PE) (Jackson Immuno Research Laboratories) for 30 minutes on ice. The cells were then washed and analyzed by flow cytometry.

[2] = target: T2, Recombinant MBP-mutCALR Type 1 fusion protein (human); test: SPR, IgG captured, 1:1 fit, Exp. 2
T2 construct: custom made at Cepter; also called recombinant mutCALR protein
How it was run: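 Antibodies captured via amine-coupled anti-human IgG (Fc) on a CM4 chip; recombinant MBP-mutCALR Type 1 fusion protein as analyte. Run at 25 °C in Tris-buffered saline pH 7.2, 0.005% P20, 1 mM CaCl₂. Multiple-cycle kinetics fitted to a 1:1 binding model.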

Row | Binder | MPL-mutCALR AUC [1] | Kd [2] | koff [2] | kon [2] | EC50 [1]
1 | B1 | 84900 | – | – | – | –
2 | B2 | – | 0.455 nM | 0.00681 s⁻¹ | 1e+07 M⁻¹ s⁻¹ | –
3 | B3 | – | 1.39 nM | 0.00631 s⁻¹ | 4.53e+06 M⁻¹ s⁻¹ | –
4 | B4 | – | 1.21 nM | 0.00123 s⁻¹ | 1.02e+06 M⁻¹ s⁻¹ | –
5 | B5 | – | 2.8 nM | 0.00278 s⁻¹ | 994000 M⁻¹ s⁻¹ | –
6 | B6 | – | 1.49 nM | 0.00549 s⁻¹ | 3.7e+06 M⁻¹ s⁻¹ | –
7 | B7 | – | 0.966 nM | 0.000953 s⁻¹ | 987000 M⁻¹ s⁻¹ | –
8 | B8 | 93700 | – | – | – | –
9 | B9 | 54200 | – | – | – | 6.7 ng/mL
10 | B10 | 64300 | – | – | – | 5.5 ng/mL
11 | B11 | – | 3.74 nM | 0.00382 s⁻¹ | 1.02e+06 M⁻¹ s⁻¹ | –
12 | B12 | 50200 | – | – | – | 4.8 ng/mL
13 | B13 | – | 2.31 nM | 0.0107 s⁻¹ | 4.63e+06 M⁻¹ s⁻¹ | –
14 | B14 | – | 0.244 nM | 0.000691 s⁻¹ | 2.83e+06 M⁻¹ s⁻¹ | –
15 | B15 | – | 1.15 nM | 0.00166 s⁻¹ | 1.44e+06 M⁻¹ s⁻¹ | –
16 | B16 | – | 3.34 nM | 0.0102 s⁻¹ | 3.05e+06 M⁻¹ s⁻¹ | –
17 | B17 | 62800 | – | – | – | 3.4 ng/mL
18 | B18 | – | 0.53 nM | 0.00527 s⁻¹ | 9.94e+06 M⁻¹ s⁻¹ | –
19 | B19 | – | 0.638 nM | 0.00248 s⁻¹ | 3.89e+06 M⁻¹ s⁻¹ | –
20 | B20 | 55100 | – | – | – | 8.2 ng/mL
21 | B21 | 62700 | – | – | – | 2.1 ng/mL
22 | B22 | – | 0.76 nM | 0.00546 s⁻¹ | 7.18e+06 M⁻¹ s⁻¹ | –
23 | B23 | 52900 | – | – | – | 8.2 ng/mL
24 | B24 | 71900 | – | – | – | 3.3 ng/mL
25 | B25 | – | 2.36 nM | 0.00836 s⁻¹ | 3.54e+06 M⁻¹ s⁻¹ | –
26 | B26 | 82400 | – | – | – | 2.9 ng/mL
